assay: label from the status in PepcDB records
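Note: failed if final PepcDB status was selected cloned or expressed and not failed if soluble or beyond.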

| Sequence | protein production |
| --- | --- |
| MSLAKISKIEAQKRKGRYNIYLDGKYAFPVAESVLIQFRLMKGTELDEKQIAAIATADQQAKAYSRMLDYLSYQMRTESDIVKKLKEIDTPEEFVEPILKKLRGQQLIDDHAYAASYVRTMINTDLKGPGIIRQHLRQKGIGESDIDDALTQFTPEVQAELAKKLALKLFRRYRNQPERRREQKVQQGLTTKGFSSSVYEMIKDEVVPQPDLEEGHHHHHH | not failed |
| MSLALRGELVVDKTKRKKRRELSEEQKQEIKDAFELFDTDKDQAIDYHELKVAMRALGFDVKKADVLKILKDYDREATGKITFEDFNEVVTDWILERDPHEEILKAFKLFDDDDSGKISLRNLRRVARELGENMSDEELRAMIEEFDKDGDGEINQEEFIAIMTGDI | not failed |
| MSLANWYLDNESSRLSFTSTKNADIAEVHRFLVLHGKVDPKGLAEVEVETESISTGIPLRDERLREQVFQVHKFPVAQINAQLDMRPINNLAPGAQLELRLPLTVSLRGKSHSYNAELLATRLDERRFQVVTLEPLVIHAQDFDMVSDFNALRNAAGLSAVSLSVPVGAVLIFTAREGHHHHHH | not failed |
| MSLARTEKIYIYGASGHGLVCEDVAKNMGYKECIFLDDFKGMKFESTLPKYDFFIAIGNNEIRKKIYQKISENGFKIVNLIHKSALISPSAIVEENAGILIMPYVVINAKAKIEKGVILNTSSVIEHECVIGEFSHVSVGAKCAGNVKIGKNCFLGINSCVLPNLSLADDSILGGGATLVKNQDEKGVFVGVPAKRMEGGSHHHHHH | not failed |
| MSLASFPHRNLTWNDINFVHTTDTHGWYSGHINQPLYHANWGDFISFTTHMRRIAHSRNQDLLLIDSGDRHDGNGLSDITSPNGLKSTPIFIKQDYDLLTIGNHELYLWENSKQEYETVVNHFQDKYVCSNVDIRLDNGLFVPLGLKYKYFTTPIRGIRVMAFGFLFDFKRFNSGTRVTPMAETIHEPWFQEALKHEVDLIIIVGHTPISHNWGEFYQVHQYLRQFFPDTIIQYFGGHSHIRDFTVFDSLSTGLQSGRYCETVGWTSVNLDKADLNLPVRQRFSRSYIDFNTDSFKYHTNLDKEFDTAKGKLVSKLIRETRKELKLDTLIGYVKTNYYVDYVPIDHPKSIFNLLALKILKTLPKSKHEERITIINTGSIRYDLYKGPYTIDSKFIVSPFENIWVNITVPKSVATKVAAKLNDADYISASRLKPPHQYDLQVQDLSTSPHQAHFEMQEKLPKGYVTHDDFGADGDDTLHRAVVNFPVPNVIQSVEINDEVDSPVNLVFYSFITPNIIWALKELNFSTEQVPTPYSDIYLGTLLNEFVANNEGHHHHHH | not failed |
| MSLAVTMFKRARAEIFDRNREVGISNVTTAASLVTFPVLAGILGGVVPSVRTPSAAMVSGVQHFAAGIVMAAVAGEVLPDLRSRGPLWLIVVGFSAGVAVLVALRRFDGHGEHQDGDDVGELPVGFLTVVAVDLFIDGLLVATGATVSSRTAIIITIALTVEVLFLGLAVALRLAGSGMPRIRAAATTSALSLVIAVGGVSGAVALGRAGNTVLTLVLAFAAGALLWLVVEELLVEAHETPERPWMAVMFFAGFLILYGLGVME | failed |
| MSLCRWAAYHGTPIFLEDVISRPGHSLIAQSAHAEECKTATNGDGFGVAWYDARPEPGLYRDVYPAWSDPNLRAVAHHVRSGLFLSHVRASTGSCISRNNCHPFAARRWCFMHNGQVGGFEAFRKQADMAIADEFYTYRKGSTDSEVLFLLALSEGLEHDPHGALARAIARLEGLSRAHGTTPHMRLSAAFSDGQTLYAARYSSDHIAPSVYYRYSHARQGWAVVSEPLETDEGDWTELRPGRMLTIGAEGAAERDFAPADLGRAAEGHHHHHH | not failed |
| MSLDRTTQQPFGNGYLSVEQANLILNHLPLEITFVNKDDIFQYYNDSVPAAEMVFKRTPSQVGRNVELCHPPKVLDKVKKVFELLRNGQRDKVNMWFQSERLGKFVYVTYAAVRDQAGDFQGVLEYVQDIKPFFELDSEFNRDEGHHHHHH | not failed |
| MSLDSDPDTLVVHTQLGTTAPGSPTYLAAVDRFREENPGVKIKNLVNGDDLAQVYETSRLARKEADVVMVNLYDKTLAWTDVGATVDVKPYLDDWGLRGRVLPAALADWTDDEGRVRAFPYFATNWPVAYNRALLDRAGVDAIPTTGDQLIAAARKLRAKGIAPVTVGGNDWTGQKLLAQIIQTFLSQDEARHVYSTGDFGVRGARLGIEYFAHLRDAGVFADKAQGLTSDSMTTQFNTEEAAVQSAMSSALAKVPEKVAGHTEVGGWPLADGAAHDGPTVIRAYTLIGFWISPNGVRKIEQVEKFLRFMYRPDVVARFVTESGRDMALRTDAVSTGFPLVGAAQRLGSEVSQVLLPDVYVPPAAAQPLITATSTSFTRGTSPARVRAALESAYRSVEGHHHHHH | not failed |
| MSLDSISLIKTPIEAELEDFKALFDTPLSDSNALLDSVITHIRKRNGKMMRPILVLLVARLYGAVTPATLHAAVSLELLHTASLVHDDVVDESTERRGQLSVNAIFNNKVSVLAGDYLLATSLVHAEQTNNYEIIRLVSSLGQKLAEGELLQLSNVSNHSFSEEVYFDVIRKKTAALFAACAEAAALSVQVGEEEVAFARLLGEYIGICFQIKDDIFDYFDSKKIGKPTGNDMLEGKLTLPALYALNTTKDAWAEQIAFKVKEGTATPDEIVRLIEFTKDNGGIEYACRTIEQYKKKAFDLLAALPDSNICLALRTYLDYVVAREKEGHHHHHH | not failed |
| MSLDSRKPGHRPVTMRDVAKAAGVSRMTVSRALKKDSPISSETRERILKVVKDMNYVPDQVAGSLTTKRSGFVGLLLPSLNNLHFAQTAQSLTDVLEQGGLQLLLGYTAYSPEREEQLVETMLRRRPEAMVLSYDGHTEQTIRLLQRASIPIVEIWEKPAHPIGHTVGFSNERAAYDMTNALLARGFRKIVFLGEKDDDWTRGAARRAGFKRAMREAGLNPDQEIRLGAPPLSIEDGVAAAELILQEYPDTDCIFCVSDMPAFGLLSRLKSIGVAVPEQVSVVGFGNFEVSRFASPEISTVRVDPIAIGRETGSLILRLLDPKQRSPQTAQHITLPPVLEFRPSLKNEGHHHHHH | not failed |
| MSLDTVDKLVVFLAKRDGIDKLVKTFQYVAKLACWHVEATRPEAADRFKKWEVASGLSRKAFRTGRSLTGFNALRRNPGATPMIRFLAVLANSGEMVYFFFDHFLWLSRIGSIDAKLAKKMSFISAFGESFGYTFFIIIDCIFIKQRLKSLKKLQHSTDEPKEEIGAKISEIRGDIVMRLMGISANVADLLIALAEIHPNPFCNHTITLGISGLVSAWAGWYRNWPS | failed |
| MSLEAGAGAPLARYAAWRRAGDFIFLSGIIPVNPLTGTIVNGFQDVPEPVRELLGATGEFSTDAKQGPILAQSWYVLESIRRTVASAGGQMSDVIKLVQYFRNLDHFPYYSRVRKLFYPDQPPVSTVVQVSEMLPDATVLIEVEATVWLPPSFNSEAEGHHHHHH | not failed |
| MSLEAIHRSTRIEFSKSSLAYNVQYTKQVSGAKTLWLAVKSNAYGHGLLQVSKIARECGVDGLAVSVLDEGIAIRQAGIDDFILILGPIDVKYAPIASKYHFLTTVSSLDWLKSADKILGKEKLSVNLAVDTGMNRIGVRSKKDLKDEIEFLQEHSDHFSYDGIFTHFASSDNPDDHYFQRQKNRWYELIDGLIMPRYVHVMNSGAAMYHSKELPGCNSIARVGTVVYGVEPSEGVLGPIDKLKPVFELKSALTFVKKIPAGEGISYGSKFVTSRDTWIGTLPIGYGDGWLAEYQDFQLLIDGQKCRQVGQIAMDQMMVALPHEYPIGTEVTLIGKSGKYENTLYDLHKHSGVPPWKITVAFSDRLKRMVVDEGHHHHHH | not failed |
| MSLEILTAGPMLTVQDAGRFGLRHMGVSPAGPIDRAAMALANALVGNDPGAAALEFAGPAGRFRCDRPVRFAVAGADCPLRIDARTVSPGESHRLNPGETLTVGVPEGAVWAYLAFSGAIASPEVLGSRATHLRSGVGGRALGAGDRLPLGEDDPEAPCLRPGLRLEAAAPFRETGPIRLILGPQDDHFAPEVIARLTGCDFTVTPQRDRMAMVLGGVELPAERGHDIVSDGTVPGSVQVPGSGTPLVLLAESQTTGGYPKIGTVASVDLARLAQMPVGARFRFALISAREGEDLWIARQAR | failed |
| MSLEPSQIMPLSVLIAEDNDICRLVAAKALEKCTNDITVVTNGLQALQAYQNRQFDVIIMDIQMPVMDGLEAVSEIRNYERTHNTKRASIIAITADTIDDDRPGAELDEYVSKPLNPNQLRDVVLTCHSEGAEGHHHHHH | not failed |
| MSLERNYEESALFEHQFWLKVLTDHAQFLLDALAPKEKEDIKKATYFVETFTNLLNKVRNVNLMAFSKEAEQAAKEIRAFKLNIIQKQLEGKITIHFTPTFINHMVNEVEEYIAVLEFLKKGEVPPVFHELHYHLVWLTDAAGHAGSISGGLDLVEKRLKEKSEEFTKHFEQFYLKAVEMTGYLRTELHHFPALKKFTKDVSLELKLFSHFLHEVEELELSNEVLSVLSARMADHMAREECYYLLKLAQSSGLEMPKCNPLEGHHHHHH | not failed |
| MSLFTCEDPAVWKAVHNKYWTVVEAKSAGKRKTSGKLLQLDKWFQEDLPAAITARPERFLTHAELVKIMEWKLTKGKFRPRLQQLIGSNNEEAVQSSSSKAFSLLPDVQAAIKELCKLKGVGSATASAVLVAGAPDKVAFMADEAVESIAELRPVEYTDKHYALYLQKMLWKTSELNKVDAQQDWTPHRVEQCLWTWTVANQIQPSLLQGVSLKDATNQKPEKRKTADEKPSKRKKTE | failed |
| MSLGHIIVTGAGSGLGRALTIGLVERGHQVSMMGRRYQRLQQQELLLGNAVIGIVADLAHHEDVDVAFAAAVEWGGLPELVLHCAGTGEFGPVGVYTAEQIRRVMESNLVSTILVAQQTVRLIGERGGVLANVLSSAAQVGKANESLYCASKWGMRGFLESLRAELKDSPLRLVNLYPSGIRSEFWDNTDHVDPSGFMTPEDAAAYMLDALEARSSCHVTDLFIGRNEGHHHHHH | not failed |
| MSLGIIRSILDTDLYKFTTGYAYAKLFPRAYGEFRFIDRNRQGFTEEFAELVRGEIRAMAALSLTRDEKEFLQRELPYLPPIYIDFLDGFRFDPEEVTVSIDAQGHLDIRAQGLLYRVTLWETPILAVISELYYRFIGAKPDWKQVEEVTRSKGELMREHRTTFSIFGMRRRFSLEVEDRVTDILKQYAGESLFGTSNVHLAHKHGLRVSGTHPHEWIQFHGAIYGYKMANYVAMEDWINVYDGDLGTVLTDTYTTDVFMRNFSKKHAMLFTSLRHDSGDPEIFIEKAVRRYEELRVDPKIKYIIFSDSLTPQRAIEIQKLCAGRIKASFGIGTNLTNDVGGGVEPLNIVMKLWKCKMTAKDDWHYCVKLSDVDGKHTGEPEEILLAMNTLGIKPKEGHHHHHH | not failed |
| MSLGKRIFVFDTTLRDGEQVPGCQLNTEEKIIVAKALDELGVDVIEAGFPVSSPGDFNSVVEITKAVTRPTICALTRAKEADINIAGEALRFAKRSRIHTGIGSSDIHIEHKLRSTRENILEMAVAAVKQAKKVVHEVEFFCEDAGRADQAFLARMVEAVIEAGADVVNIPDTTGYMLPWQYGERIKYLMDNVSNIDKAILSAHCHNDLGLATANSLAALQNGARQVECTINGIGERAGNTALEEVVMAMECHKETLGLETGINHKKLVPISHLVSTLMRMQVQSNKAIVGRNAFAHSSGIHQDGFLKHRETYEIIDEGHHHHHH | not failed |
| MSLGQTTLACSFRSLTNPYYTAFNKGAQSFAKSVGLPYVPLTTEGSSEKGIADIRALLQKTGGNLVLNVDPNDSADARVIVEACSKAGAYVTTIWNKPKDLHPWDYNPNYVAHLSYDGVAYGEETATQLFKSMGGKGGVVALGGIFSNVPAIERKAGLDAALKKFPGIQLLDFQVADWNSQKAFPIMQAWMTRFNSKIKGVWAANDDMALGAIEALRAEGLAGQIPVTGMDGTQPGLVAIKSGELVASVDWDPFWLGGIGLSMGLQAKEKKIDLATLPKDRRESFCTATFVTKTNVQDVIARAASPKAEWNNLYARVAGPVVYREGHHHHHH | not failed |
